Source: US5610063A, “cDNA for α-N-acetyl-galactosaminidase from Gallus domesticus” (Curators of the University of Missouri, priority 1995, dated 1997)
“Also recorded” adds a separate entry of the source.

Key:
[1] = tested on: human α-N-acetyl-galactosaminidase; conditions: human enzyme; Schram et al, 1977; cited from earlier work
[2] = target: T1, Gallus N-acetyl-α-D-galactosaminidase (Gallus gallus, UniProt Q90744); experiment: Kinetic parameters (Km, turnover number) of Gallus enzyme; format: biochemical, Gallus domesticus; conditions: Example 1 preparation
T1 construct: the cDNA clone corresponds to the region of the mRNA encoding the mature polypeptide for the chicken α-N-acetyl-galactosaminidase; from tissue; host or cells: chicken liver
T1 sequence (Q90744 1-405 S162A): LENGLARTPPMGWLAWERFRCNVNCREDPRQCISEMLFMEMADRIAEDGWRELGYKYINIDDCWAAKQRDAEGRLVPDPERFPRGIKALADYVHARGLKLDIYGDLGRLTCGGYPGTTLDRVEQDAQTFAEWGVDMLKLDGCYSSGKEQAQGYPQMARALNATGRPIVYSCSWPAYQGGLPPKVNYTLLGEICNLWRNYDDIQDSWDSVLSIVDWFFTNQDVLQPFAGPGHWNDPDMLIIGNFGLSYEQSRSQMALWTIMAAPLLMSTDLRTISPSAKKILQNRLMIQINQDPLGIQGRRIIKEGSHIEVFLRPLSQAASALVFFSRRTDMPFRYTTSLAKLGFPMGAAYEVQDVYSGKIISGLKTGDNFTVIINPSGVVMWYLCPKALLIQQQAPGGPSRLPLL
Protocol: Enzymatic activity was quantitated during the purification by measuring production of p-nitrophenol (PNP) from PNP-N-acetyl-α-D-galactosaminide or o-nitrophenol (ONP) from ONP-N-acetyl-α-D-galactosaminide. Enzyme aliquots were incubated in 200 μl of 50 mM Na citrate+1 mg/ml BSA+1.0 mM PNP-N-acetyl-α-D-galactosaminide, pH 3.5, at 37° C. The reactions were quenched with 1.0 ml of 0.25M Na2 CO3 and the OD 405 nm was measured. One unit of activity was defined as 1.0 μmole of substrate hydrolyzed per minute.

[3] = target: T1, Gallus N-acetyl-α-D-galactosaminidase; experiment: Substrate specificity (relative activity); format: biochemical, Gallus domesticus; conditions: % of enzyme activity on the corresponding conjugate, 2.5 mM PNP conjugates, pH 3.5
[4] = target: T2, Gallus α-N-acetyl-galactosaminidase (Gallus gallus, UniProt Q90744); experiment: Affinity ligand chromatography; format: binding, Gallus domesticus; conditions: Affi-Gel 10 coupled ligand
T2 construct: mature glycoprotein, about 145 kDa oligomer
T2 sequence (Q90744 1-405 S162A): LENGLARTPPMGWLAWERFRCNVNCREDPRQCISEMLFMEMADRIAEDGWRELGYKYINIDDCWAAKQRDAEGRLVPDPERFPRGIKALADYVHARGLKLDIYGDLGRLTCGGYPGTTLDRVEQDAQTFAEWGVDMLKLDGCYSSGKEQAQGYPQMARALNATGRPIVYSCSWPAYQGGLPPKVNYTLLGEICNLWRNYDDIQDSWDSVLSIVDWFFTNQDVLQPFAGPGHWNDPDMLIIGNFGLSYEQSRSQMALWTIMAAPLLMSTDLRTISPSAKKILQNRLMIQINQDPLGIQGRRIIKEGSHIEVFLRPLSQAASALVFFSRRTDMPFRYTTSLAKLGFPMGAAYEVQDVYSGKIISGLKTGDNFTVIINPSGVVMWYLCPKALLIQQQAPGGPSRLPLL
Protocol: Synthesis of affinity ligand and resin: .xi.-aminohexanoyl-α-D-galactopyranosYlamine was synthesized by a modification of the method of Harpaz et al. (1974). Purity of the product was determined by thin-layer chromatography and mass spectroscopy. The ligand was coupled to Affi-Gel™ 10 per the manufacturer's directions. Coupling efficiencies of 80%.
Step 5. After dialysis, the pool was applied to a 1.5×20 cm .xi.-aminohexanoyl-α-D-galactopyranosylamine Affi-Gel™ 10 column equilibrated in 50 mM Na acetate+0.1% Triton X-100+0.01% NAN3, pH 5.0. The column was washed with 90 mls of equilibration buffer, and the enzyme was eluted with 50 mM NaH2 PO4 +100 mM methyl-α-D-galactopyranoside+0.1% Triton X-100+0.01% NAN3, pH 7.0. Active fractions were pooled, concentrated, and dialyzed into 50 mM Na acetate+0.1% Triton X-100+0.01% NaN3, pH 5.0.
7. Load the filtrate onto a 2.5×15.0 cm ε-amino-hexanoyl-α-D-galactopyranosylamine Affi-Gel™ 10 column equilibrated with 10 mM NaH2 PO4, pH 5.5 at 4° C. Wash the column with 300 ml of 75 mM NaH2 PO4 pH 5.5. Elute the enzyme from the column with 300 ml (range 50 to 500) of 50 mM NaH2 PO4 +100 mM D-(+)-Galactose, pH 7.0.

[5] = pI by chromatofocusing; format: physicochemical; conditions: Example 1 preparation
[6] = Selectivity / other glycosidase activities of the enzyme preparation; format: biochemical
[7] = pH optimum; format: biochemical; conditions: for pH optimum: pH 2.0 to 8.0 tested
Protocol: The pH optima was determined by incubating aliquots of the enzyme in 40 mM Na citrate+40 mM NaH2 PO4 +1 mg/ml BSA+2.5 mM PNP-N-acetyl-α-D-galactosamide, pH 2.0 to 8.0. The ionic strength optimum was determined by incubating aliquots of the enzyme in 2.5 mM Na citrate+1 mg/ml BSA+2.5 mM PNP-N-acetyl-α-D-galactoside+0 to 1.0M NaCl, pH 3.5 and 6.0. The Kms for ONP- and PNP-N-acetyl-α-D-galactosaminide were determined by varying the substrate concentration in 50 mM Na citrate+1 mg/ml BSA, pH 3.5. The native molecular weight was determined by applying a concentrated portion of the enzyme to a 1×45 cm Sephacryl S-200 column equilibrated in 25 mM Na citrate+200 mM NaCl, pH 6.0. SDS polyacrylamide electrophoresis (SDS-PAGE) was performed according to the method of Laemmli and the protein bands developed with Coomassie R-250 (Laemmli, 1970). Amino acid composition was determined on a Beckman amino acid analyzer (Moore et al., 1954).

[8] = Ionic strength optimum; format: biochemical
[9] = Hata et al., 1992; cited from earlier work
[10] = Aminopeptidase assay with p-nitroaniline (PNA) substrates; format: biochemical; conditions: for Aminopeptidase activity: five PNA substrates
Protocol: Aminopeptidase assays were performed by incubating aliquots of enzyme with 2.5 mM of various p-nitroaniline (PNA) substrates in 50 mM Na citrate+50 mM NaH2 PO4 +0.1% Triton X-100, pH 5.0 to 8.0 (Macfarlane et al., 1988). The reactions were incubated at 37° C., quenched with 1.0 ml of 0.25M Na2 CO3, and the OD 405 nm was determined. One unit of aminopeptidase activity was defined as 1.0 μmole of PNA hydrolyzed per minute.

[11] = tested on: resorufin-labeled casein; experiment: Endoprotease (resorufin-labeled casein) assay; format: biochemical; conditions: for endoprotease activity, resorufin-labeled casein assay: sensitivity limit 0.01 trypsin BAEE units
Protocol: (§1) Endoprotease assays were performed by an adaption of the resorufin-labeled casein assay of Twining (Twining, 1984). The limit of sensitivity of this assay was determined using a trypsin standard. Stable, concentrated, detergent-free enzyme was prepared as described herein. Activity against the blood group antigen on erythrocytes was determined by incubating enzyme at 24°-37° C. for 2-8 hours with either erythrocytes equilibrated in 25 mM Na citrate+50 mM NaH2 PO4 +80 mM NaCl, pH 5.6-5.8, or in 2.5-5 mM Na citrate+300 mM glycine, pH 5.4-5.6. The cells were washed with phosphate buffered saline, pH 7.0, then incubated with varying dilutions of polyclonal or monoclonal antibody, as for example anti-A for A erythrocytes. Other antibodies and buffers could be used for other blood groups as is known in the art. Hemagglutination was performed and titer scored by standard methods (Bryant, 1982).

[12] = tested on: human A2 erythrocytes; experiment: Removal of blood group A epitope from A2 erythrocytes (hemagglutination); format: cell-based; conditions: much higher enzyme concentrations are required
Protocol: as §1
The enzyme was also tested on human A2 erythrocytes. Removal of the terminal N-acetyl-α-D-galactosaminyl residue from the blood group A epitope, {galNAc(α1-3) gal(β1-R) {fuc(α1-2)} glueNAc(β1-R)}, was achieved by the enzyme as shown in FIG. 8. […] Incubation at 37° C. was necessary because dilute concentrations of glycosidase were used.

[13] = Storage stability at 4° C.; format: physicochemical
[14] = tested on: human A2 erythrocytes; experiment: Erythrocyte indices, hemolysis and morphology after enzyme treatment; format: cell-based
[15] = preparations isolated by the invention

In the case of `O=[N+]([O-])c1ccc(O[C@H]2O[C@H](CO)[C@H](O)[C@H](O)[C@H]2O)cc1` [PNP-α-D-galactopyranoside], the Km [1] is given as 1000 µM, the “Km (in words)” value [2] is given as “high Km” and the “Relative Activity” value ([3]; Table IV, Example 1 preparation) is given as 12.74%. For the same molecule, the “Relative Activity” value ([3]; Table VI, improved purification (Example 2)) was 15.79%.

With `NCCCCCC(=O)N[C@H]1O[C@H](CO)[C@H](O)[C@H](O)[C@H]1O` [.xi.-aminohexanoyl-α-D-galactopyranosylamine] the “active site specific affinity ligand (in words)” value [4] was “efficient active site specific affinity ligand”.

B1: α-N-acetyl-galactosaminidase: purified exoglycosidase [EC 3.2.1.49] derived from Gallus domesticus (chicken) liver, degrades human blood group A2 epitope (protein, UniProt Q90744 1-405, looked up)
Alpha-N-acetylgalactosaminidas …: LENGLARTPPMGWLAWERFRCNVNCREDPRQCISEMLFMEMADRIAEDGWRELGYKYINIDDCWAAKQRDAEGRLVPDPERFPRGIKALADYVHARGLKLDIYGDLGRLTCGGYPGTTLDRVEQDAQTFAEWGVDMLKLDGCYSSGKEQAQGYPQMARALNSTGRPIVYSCSWPAYQGGLPPKVNYTLLGEICNLWRNYDDIQDSWDSVLSIVDWFFTNQDVLQPFAGPGHWNDPDMLIIGNFGLSYEQSRSQMALWTIMAAPLLMSTDLRTISPSAKKILQNRLMIQINQDPLGIQGRRIIKEGSHIEVFLRPLSQAASALVFFSRRTDMPFRYTTSLAKLGFPMGAAYEVQDVYSGKIISGLKTGDNFTVIINPSGVVMWYLCPKALLIQQQAPGGPSRLPLL
In the case of B1, the “pI (approximate mean)” value [5] is reported as ~8.15, the “selectivity (in words)” value ([6]; for PNP-N-acetyl-α-D-galactosaminide) is reported as “highly selective” and the “other glycosidase activities (in words)” value ([6]; preparations of the inventive isolation methods) is reported as “lack other detectable glycosidase activities”. For the same molecule, the “pH range of activity (in words)” value ([7]; Example 1 preparation) was “broad pH range”, the pH optimum ([7]; Example 1 preparation) was 3.7 and the “pH range of activity (in words)” value ([7]; Example 2 preparation) was “broad pH range”. For the same molecule, the pH optimum ([7]; Example 2 preparation) was 3.4, the “effect of ionic strength on activity” value ([8]; Example 1 preparation, high or low ionic strengths, pH 3.7) was “not strongly inhibited” and the “effect of ionic strength on activity” value ([8]; Example 2 preparation, high / increasing ionic strength (pH 3.5)) was “unaffected by increasing ionic strength; also recorded: not significantly affected”. The “degradation of the human blood group A epitope” value [9] was “degrades the human blood group A epitope”, the Aminopeptidase activity ([10]; Example 1 preparation, below limits of detection) was ≤ 0.05 units/mg enzyme and the Aminopeptidase activity ([10]; Example 2 preparation) was “less than 0.05 units per mg”. For the same molecule, the “aminopeptidase activity (in words)” value [10, 15] was “lacked detectable aminopeptidase”, the “"trypsin-like activity"” value ([11]; Example 1 preparation) was “less than 0.78 ng per mg of pure enzyme” and the “proteolytic activity (in words)” value ([11]; Example 1 preparation) was “No proteolytic activity was detected”. For the same molecule, the “endoprotease activity, resorufin-labeled casein assay” value ([11]; Example 1 preparation) was ≤ 0.01 BAEE units/mg enzyme, the “"trypsin-like activity"” value ([11]; Example 2 preparation) was “less than 0.78 ng per mg of pure enzyme” and the “proteolytic activity (in words)” value ([11]; Example 2 preparation) was “no measurable protease activity; also recorded: No proteolytic activity was detected”. For the same molecule, the “endoprotease activity, resorufin-labeled casein assay” value ([11]; Example 2 preparation) was “less than 0.01 BAEE units/mg enzyme”, the “endoprotease activity (in words)” value [11, 15] was “lacked detectable aminopeptidase and endoprotease activities” and the “deantigenation at lower temperatures and shorter incubations” value [12] was “achieved deantigenation”. For the same molecule, the “loss of activity on storage” value ([13]; Example 1 preparation, several months) was “less than 10%”, the “loss of activity on storage” value ([13]; Example 2 preparation, six months) was “less than 5%” and the “stability (in words)” value ([13]; purified enzyme) was “stable at 4 °C”. The “morphology of treated cells” value [14] was “mixed population of normocytes and spiculated cells”, the “change in erythrocyte mean corpuscular volume” value ([14]; treated human A2 erythrocytes) was “insignificant change” and the “change in mean corpuscular hemoglobin” value ([14]; treated human A2 erythrocytes) was “insignificant change”. For the same molecule, the “change in mean corpuscular hemoglobin concentration” value ([14]; treated human A2 erythrocytes) was “insignificant change” and the visible hemolysis ([14]; treated human A2 erythrocytes) was “little visible hemolysis”.
